Test results published in US20030233681, “ICE1, a regulator of cold induced transcriptome and freezing tolerance in plants” (Arizona Bd of Regents/Behalf of Univ. of Arizona, published 2003).

Legend:
ICE1 [1] = target: T1, ICE1 (Arabidopsis thaliana, UniProt Q9LSE2 SEQ:1-494); test: EMSA; one major complex; strongest of the sites by competition; poly(dI-dC), room temperature 20 min; details: tags: His tag N-terminal (pET14b, E. coli BL21 DE3); label: 32P
T1 sequence: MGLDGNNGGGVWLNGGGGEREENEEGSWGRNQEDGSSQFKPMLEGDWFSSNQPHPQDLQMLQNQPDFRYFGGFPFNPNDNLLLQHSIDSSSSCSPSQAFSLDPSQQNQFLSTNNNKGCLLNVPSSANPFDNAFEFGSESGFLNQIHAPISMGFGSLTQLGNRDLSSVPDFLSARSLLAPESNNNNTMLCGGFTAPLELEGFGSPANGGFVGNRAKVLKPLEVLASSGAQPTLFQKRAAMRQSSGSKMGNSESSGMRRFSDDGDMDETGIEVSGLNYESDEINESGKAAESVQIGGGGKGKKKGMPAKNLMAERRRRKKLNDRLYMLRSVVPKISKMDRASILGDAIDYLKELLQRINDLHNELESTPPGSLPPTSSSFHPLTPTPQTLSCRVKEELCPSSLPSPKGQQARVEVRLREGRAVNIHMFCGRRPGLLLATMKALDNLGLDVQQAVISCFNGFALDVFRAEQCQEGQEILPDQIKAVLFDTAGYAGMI
Procedure: (§1) The wild type and mutant ICE1 cDNAs were amplified by RT-PCR and inserted into NdeI and BamHI sites in the expression vector pET14b (Novagen). Wild-type and mutant His-ICE1 fusion proteins were prepared from E. coli cells (BL21 DE3) according to the instruction manual of His-Bind Buffer Kit (Novagen). The electrophoresis mobility shift assay (EMSA) was carried out as described (Hao et al. 1998). The following double-stranded oligonucleotides listed in FIG. 6A (MYC-1, MYC-2, MYC-3, MYC-4 and MYC-5) were used as probes and competitors in EMSAs. Nucleotide sequences P1 (−949 to −930) and P2 (−909 to −890) were also used as competitors. P1 contains a putative MYB-recognition site. […] DNA probes were end-labeled with [γ-³²P]dCTP using the Klenow fragment and purified through a Sephadex G-50 column. The labeled probes (ca 0.02 pmol) were incubated for 20 min at room temperature with 2.3 μg of purified His-ICE1 fusion protein in 1×binding buffer (Hao et a.1998) supplemented with 20 pmol poly(dI-dC). The resulting DNA-protein complexes were resolved by electrophoresis on a 6% polyacrylamide gel in 0.5×TBE buffer and visualized by autoradiography. For competition experiments, unlabeled competitors were incubated with the His-ICE1 fusion protein on ice for 30 min prior to the addition of labeled probes. […]

ice1 (R236H) = target: T2, ice1 (R236H) (Arabidopsis thaliana, UniProt Q9LSE2 SEQ:1-494, R236H); test: EMSA; R236H mutant still binds; details: tags: His tag N-terminal (pET14b, E. coli BL21 DE3); label: 32P
T2 sequence: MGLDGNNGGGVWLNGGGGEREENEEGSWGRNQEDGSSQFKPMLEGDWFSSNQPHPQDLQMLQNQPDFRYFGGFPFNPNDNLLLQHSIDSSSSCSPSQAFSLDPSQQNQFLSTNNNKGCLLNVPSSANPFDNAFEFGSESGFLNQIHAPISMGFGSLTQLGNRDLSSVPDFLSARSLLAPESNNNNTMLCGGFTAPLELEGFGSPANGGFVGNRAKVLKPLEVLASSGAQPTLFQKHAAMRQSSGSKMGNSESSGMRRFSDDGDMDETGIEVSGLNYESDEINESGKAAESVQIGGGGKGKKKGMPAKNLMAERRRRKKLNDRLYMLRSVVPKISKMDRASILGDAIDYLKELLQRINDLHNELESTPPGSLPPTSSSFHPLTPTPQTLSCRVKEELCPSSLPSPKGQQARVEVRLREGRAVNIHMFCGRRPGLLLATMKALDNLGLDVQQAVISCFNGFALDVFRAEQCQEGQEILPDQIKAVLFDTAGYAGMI
Procedure: as §1

ICE1 [2] = target: T1, ICE1; test: EMSA; several complexes; weaker competitor than MYC-2; details: tags: His tag N-terminal (pET14b, E. coli BL21 DE3); label: 32P
Procedure: (§2) For competition experiments, unlabeled competitors were incubated with the His-ICE1 fusion protein on ice for 30 min prior to the addition of labeled probes.
(§3) ICE1 has a basic helix-loop-helix (bHLH) domain and its amino acid sequence in the basic region is highly conserved with other bHLH proteins (FIG. 4B), and therefore may recognize promoter elements similar to the DNA-binding sites for known bHLH proteins. These proteins recognize DNA with the consensus sequence CANNTG (Meshi and Iwabuchi 1995). In the promoter region of CBF3, there are five potential MYC-recognition elements within a 1 kb region upstream of the transcription initiation site (Shinwari et al. 1998). These possible MYC-recognition sites, designated MYC-1 through MYC-5, fall into four groups because MYC-3 and MYC-5 share the same consensus sequence, CATTTG (FIG. 6A). Thus, MYC-3 was used to represent both MYC-3 and MYC-5. To determine whether ICE1 binds to these MYC-recognition sites in the CBF3 promoter, we expressed and purified His-ICE1 fusion protein from E. coli. Four DNA fragments encompassing each possible MYC-recognition site were used for interaction with His-ICE1 in an electrophoresis mobility shift assay (EMSA).
(§4) The MYC-2 fragment formed one major complex with ICE1, while the other DNA fragments formed several complexes with ICE1. […]

ICE1 [3] = target: T1, ICE1; test: EMSA; several complexes; weaker competitor than MYC-2; also represents MYC-5; details: tags: His tag N-terminal (pET14b, E. coli BL21 DE3); label: 32P
Procedure: as §2, §3, §4

ICE1 [4] = target: T1, ICE1; test: competition; unlabeled competitor with putative MYB site does not compete; 50-250 fold excess; details: tags: His tag N-terminal (pET14b, E. coli BL21 DE3)
Procedure: as §1

ICE1 [5] = target: T1, ICE1; test: competition; unlabeled non-related competitor does not compete; 50-250 fold excess; details: tags: His tag N-terminal (pET14b, E. coli BL21 DE3)
Procedure: as §1

B1: MYC-2 (dsDNA)
DNA 1: CTCTGGACACATGGCAGATC
DNA 2: GATCTGCCATGTGTCCAGAG
B1: binds (ICE1 [1]); binds (ice1 (R236H)).

B2: MYC-1 (dsDNA)
DNA 1: CATTTTACAATTGCTTCGCT
DNA 2: AGCGAAGCAATTGTAAAATG
B2: binds (ICE1 [2]).

B3: MYC-3 (dsDNA)
DNA 1: AATGTTACATTTGATCATTC
DNA 2: GAATGATCAAATGTAACATT
B3: binds (ICE1 [3]).

B4: MYC-4 (dsDNA)
DNA 1: ACAATTACAACTGCATGCTT
DNA 2: AAGCATGCAGTTGTAATTGT
B4: binds (ICE1 [2]).

B5: P1 (-949 to -930) (dsDNA)
DNA 1: ATATAATTAACTACTTTTAT
DNA 2: ATAAAAGTAGTTAATTATAT
B5: no binding (ICE1 [4]).

B6: P2 (-909 to -890) (dsDNA)
DNA 1: GACTCGTTTCGCGATCCGAT
DNA 2: ATCGGATCGCGAAACGAGTC
B6: no binding (ICE1 [5]).
